Experimental findings from patent publication CN113480646A (INST BIOPHYSICS CAS; UNIV PEKING FIRST HOSPITAL, dated 2021) are described below.

The target in experiment [1] is T1, 体外纯化的组蛋白H1.4(WT H1.4), fusion protein expressed from pET-28a-WT H1.4 (Homo sapiens (Human), UniProt P10412 1-219).
T1 construct: Expressed in E. coli BL21(DE3) and purified; 100 ng was loaded, denatured, for the Western blot; also called 野生型H1.4
Briefly: Western blot, purified protein. For orientation: In western blotting, separated proteins are transferred to a membrane and probed.

Experiment [2] deals with T2, 体外纯化的H1.4移码突变蛋白(H1.4 K157E fs*), fusion protein expressed from pET-28a-H1.4 K157E.
T2 construct: Expressed in E. coli BL21(DE3) and purified; 100 ng was loaded, denatured, for the Western blot; also called Lys157Glu fs*39; H1.4 K157E移码突变体
T2 chain: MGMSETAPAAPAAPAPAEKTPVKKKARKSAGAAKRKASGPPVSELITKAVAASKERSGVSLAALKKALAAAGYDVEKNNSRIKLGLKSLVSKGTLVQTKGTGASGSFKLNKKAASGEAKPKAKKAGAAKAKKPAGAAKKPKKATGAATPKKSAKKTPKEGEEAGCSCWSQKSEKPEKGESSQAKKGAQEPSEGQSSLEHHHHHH
Put plainly: Western blot, 100 ng purified protein.

Experiment [3] addresses T3, 内源过表达的组蛋白H1.4(WT H1.4), Flag fusion expressed from pFLAG-CMV-WT H1.4 in NIH 3T3 cells.
T3 construct: Overexpressed in mouse NIH 3T3 cells; Tested as SDS cell lysate (50 ug total protein) by Western blot; also called 野生型H1.4
Put plainly: Western blot, lysate of transfected NIH 3T3 cells.

B1: 特异性结合H1.4移码突变蛋白的单克隆抗体 (hybridoma cell line A1) (antibody, mouse IgG1, kappa, V domains shown)
VH: QIQLVQSGPELKKPGETVKISCKASGYTFTDYSMQWMKQAPGKGLKWMGWIDTGTGEPSYADDFKGRFAFSLETSASTAYLQINNLKNEDTATYFCARRSYGYFAFWGQGTLVAVSA
VL: DVVMTQTPLSLPVSLGDQASISCRSSQNIVHVNGNTYLEWYLQKPGQSPKLLIYKVSNRFSGVPDRFSGSGSGTEFTLKISRVEAEDLGVYYCFQGSHVPFTFGAGTKLELKR
notes: also called H1.4移码突变抗体; H1.4移码突变的抗体
B1: the binding result in experiment [1] is recorded as “no binding (tested: 100ng)”; in experiment [2], “binds”; in experiment [3], “no binding (tested: 50μg total lysate protein)”.
